Values quoted from earlier work in paper PMC8480781.

Columns and labels:
Glu66 = Glu66 (UniProt position 148, FTKKMEENAKK); experiment: stability; conditions: PHS V66E; state not stated
Lys66 = Lys66 (UniProt position 148, FTKKMKENAKK); experiment: potentiometry; conditions: PHS V66K; state not stated

Staphylococcal nuclease PHS V66E (Staphylococcus aureus; P117G;H124L;S128A;V66E)
pKa (Glu66): 8.73–9.28

Staphylococcal nuclease PHS V66K (Staphylococcus aureus; P117G;H124L;S128A;V66K)
pKa (Lys66): 6.25–6.45
